One assay addresses T1, PcsB CC (Streptococcus pneumoniae, UniProt A0A0H2ZQ76).
T1 chain: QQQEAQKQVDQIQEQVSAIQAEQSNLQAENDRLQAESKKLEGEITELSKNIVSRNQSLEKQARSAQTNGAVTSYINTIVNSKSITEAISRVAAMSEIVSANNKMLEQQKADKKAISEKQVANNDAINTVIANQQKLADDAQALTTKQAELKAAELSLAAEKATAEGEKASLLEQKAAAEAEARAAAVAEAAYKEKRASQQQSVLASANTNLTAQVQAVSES
Put plainly: ITC; given as Ka. In general terms: ITC needs no label: the signal is the heat of the interaction.

In assay [1] the target is T2, PcsB coiled-coil domain, PscBCC(47–267) (Streptococcus pneumoniae, UniProt A0A0H2US70 47-267).
T2 construct: PcsB peptidoglycan hydrolase, Streptococcus pneumoniae, coiled-coil domain, residues 47 to 267; also called PcsB-CC(47–267); His-PscBCC(47–267); source: E. coli strain derived from BL21(DE3)
T2 sequence (looked up): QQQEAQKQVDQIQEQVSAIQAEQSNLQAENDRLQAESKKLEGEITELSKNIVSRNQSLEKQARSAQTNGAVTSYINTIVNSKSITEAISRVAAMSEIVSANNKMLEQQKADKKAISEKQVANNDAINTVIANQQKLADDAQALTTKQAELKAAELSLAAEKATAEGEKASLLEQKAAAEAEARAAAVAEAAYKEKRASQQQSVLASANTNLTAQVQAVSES
The assay is described as follows: ITC; titration of PscBCC with FtsX_(ECL1) (wild type or L115A M119A); 50 mM potassium phosphate, 50 mM NaCl, 0.5 mM EDTA, pH 7.0, 25.0°C; one-site binding model. Particulars: both partners purified.

B1: FtsX ECL1 (protein)
chain: TAKLATDIENNVRVVVYIRKDVEDNSQTIEKEGQTVTNNDYHKVYDSLKNMSTVKSVTFSSKEEQYEKLTEIMGDNWKIFEGDANPLYDAYIVEANAPNDVKTIAEDAKKIEGVSEVQDGGA
The Kd is the equilibrium constant for the complex coming apart. A lower Kd goes with higher affinity. For B1, in the assay with PcsB CC, the Kd worked out at 33.3 µM.

B2: FtsX large extracellular loop 1 (FtsX_(ECL1)), residues 46 to 168 (domain or fragment, Streptococcus pneumoniae, UniProt Q04LE4 46-168, looked up)
chain: NTAKLATDIENNVRVVVYIRKDVEDNSQTIEKEGQTVTNNDYHKVYDSLKNMSTVKSVTFSSKEEQYEKLTEIMGDNWKIFEGDANPLYDAYIVEANAPNDVKTIAEDAKKIEGVSEVQDGGA
notes: FtsX, Streptococcus pneumoniae, large extracellular loop (ECL1), residues 46 to 168; Uniformly 15N-labelled when observed by NMR, unlabelled when added to 15N PcsBCC(47-254) and in ITC; also called wild-type (WT) FtsX_(ECL1); Spn ECL1; source: E. coli strain derived from BL21(DE3); LB or M9 minimal medium with 15NH4Cl
In assay [1], B2 came in with a Ka of 30000 M⁻¹, a Kd of 34 ± 6 µM and a dH of -2.1 ± 0.2 kcal/mol.

Values taken from article PMC6355983, “Structure of the Large Extracellular Loop of FtsX and Its Interaction with the Essential Peptidoglycan Hydrolase PcsB in Streptococcus pneumoniae” (mBio, 2019).
